Test system: Escherichia coli TOP10
Experiment: shrunken log2 fold change of peptide-encoding DNA abundance (4.5 h post-induction vs induction); higher = less antimicrobial activity (less host growth inhibition)
Settings: time post-induction: 4.5 h; library: site-saturation at positions 5, 18, 19, 20
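Also: peptides expressed intracellularly from a pBAD plasmid library in pooled LB shake-flask culture, induced with 0.3% L-arabinose, DNA abundance read by NGS, three biological replicates, DESeq2 with apeglm shrinkage.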

Sequence	shrunken log2 fold change
RRIRCRPPRLPRPRPRPQQRPRP	0.0521
RRIRCRPPRLPRPRPRPENMPRP	-0.57
RRIRPRPPRLPRPRPRPCGIPRP	-0.0938
RRIRARPPRLPRPRPRPSYTPRP	1.56
RRIRFRPPRLPRPRPRPYDEPRP	-0.526
RRIRPRPPRLPRPRPRPSSGPRP	-0.494
RRIRGRPPRLPRPRPRPQVYPRP	0.23
RRIRHRPPRLPRPRPRPMCSPRP	-0.0225
RRIRLRPPRLPRPRPRPTNRPRP	0.267
RRIRIRPPRLPRPRPRPFIDPRP	-0.205
RRIRFRPPRLPRPRPRPSIDPRP	-0.433
RRIRNRPPRLPRPRPRPYHKPRP	-2.76
RRIRIRPPRLPRPRPRPFFRPRP	-0.636
RRIRGRPPRLPRPRPRPLPSPRP	0.83
RRIRMRPPRLPRPRPRPITQPRP	-0.00846
RRIRTRPPRLPRPRPRPCGWPRP	0.0147
RRIRYRPPRLPRPRPRPNDYPRP	-0.0969
RRIRDRPPRLPRPRPRPNGRPRP	0.00232
RRIRQRPPRLPRPRPRPISVPRP	0.136
RRIRHRPPRLPRPRPRPQSRPRP	-0.0223
RRIRRRPPRLPRPRPRPIFSPRP	1.06
RRIRCRPPRLPRPRPRPTIVPRP	-0.0931
RRIRQRPPRLPRPRPRPIIEPRP	-0.504
RRIRPRPPRLPRPRPRPNRMPRP	-0.138
RRIRRRPPRLPRPRPRPTQAPRP	-0.0717

Sequence	shrunken log2 fold change
RRIRTRPPRLPRPRPRPAELPRP	0.112
RRIRWRPPRLPRPRPRPLLSPRP	0.148
RRIRRRPPRLPRPRPRPHFYPRP	0.0714
RRIRQRPPRLPRPRPRPYTMPRP	-0.128
RRIRARPPRLPRPRPRPSVAPRP	0.485
RRIRSRPPRLPRPRPRPDNRPRP	-0.00987
RRIRDRPPRLPRPRPRPMSHPRP	-0.046
RRIRNRPPRLPRPRPRPFSWPRP	0.0512
RRIRTRPPRLPRPRPRPECYPRP	-0.0535
RRIRSRPPRLPRPRPRPVESPRP	-0.0897
RRIRFRPPRLPRPRPRPTNIPRP	-0.959
RRIRMRPPRLPRPRPRPGCGPRP	1.04
RRIRDRPPRLPRPRPRPFPKPRP	-0.201
RRIRKRPPRLPRPRPRPETRPRP	0.269
RRIRWRPPRLPRPRPRPDVFPRP	0.019
RRIRDRPPRLPRPRPRPDKSPRP	-0.119
RRIRERPPRLPRPRPRPTRDPRP	0.245
RRIRFRPPRLPRPRPRPHGFPRP	-0.105
RRIRPRPPRLPRPRPRPGDSPRP	0.035
RRIRMRPPRLPRPRPRPEWVPRP	0.32
RRIRERPPRLPRPRPRPTLNPRP	-0.152
RRIRYRPPRLPRPRPRPLKCPRP	-0.301
RRIRGRPPRLPRPRPRPMATPRP	1.37
RRIRFRPPRLPRPRPRPLMFPRP	-0.695
RRIRHRPPRLPRPRPRPNPWPRP	-0.248

Sequence	shrunken log2 fold change
RRIRNRPPRLPRPRPRPWGMPRP	-0.214
RRIRCRPPRLPRPRPRPDDAPRP	-0.0228
RRIRIRPPRLPRPRPRPCAIPRP	0.137
RRIRQRPPRLPRPRPRPQHRPRP	-0.0379
RRIRDRPPRLPRPRPRPWVDPRP	-0.0979
RRIRNRPPRLPRPRPRPWAFPRP	-0.014
RRIRARPPRLPRPRPRPEGWPRP	1.38
RRIRTRPPRLPRPRPRPSHPPRP	-0.416
RRIRVRPPRLPRPRPRPNWCPRP	-0.00931
RRIRTRPPRLPRPRPRPERHPRP	-0.0333
RRIRNRPPRLPRPRPRPSVCPRP	-0.174
RRIRPRPPRLPRPRPRPVDDPRP	0.103
RRIRQRPPRLPRPRPRPAANPRP	0.0666
RRIRYRPPRLPRPRPRPYRCPRP	0.0155
RRIRPRPPRLPRPRPRPDHVPRP	-0.474
RRIRLRPPRLPRPRPRPCSDPRP	0.0181
RRIRHRPPRLPRPRPRPWCLPRP	-1.67
RRIRTRPPRLPRPRPRPNGGPRP	0.033
RRIRLRPPRLPRPRPRPVCGPRP	0.227
RRIRIRPPRLPRPRPRPQSTPRP	-0.427
RRIRCRPPRLPRPRPRPIEHPRP	-0.00454
RRIRPRPPRLPRPRPRPKGVPRP	0.000119
RRIRFRPPRLPRPRPRPDEFPRP	-0.267
RRIRTRPPRLPRPRPRPWRPPRP	0.00182
RRIRYRPPRLPRPRPRPRTWPRP	-0.0833

Sequence	shrunken log2 fold change
RRIRIRPPRLPRPRPRPYTSPRP	-0.434
RRIRERPPRLPRPRPRPVNTPRP	-0.34
RRIRVRPPRLPRPRPRPKSRPRP	0.0366
RRIRDRPPRLPRPRPRPIQDPRP	-0.0113
RRIRHRPPRLPRPRPRPYPPPRP	-0.694
RRIRQRPPRLPRPRPRPNRNPRP	-0.658
RRIRHRPPRLPRPRPRPPPLPRP	0.651
RRIRFRPPRLPRPRPRPYMWPRP	-1.43
RRIRKRPPRLPRPRPRPWVCPRP	0.324
RRIRNRPPRLPRPRPRPEWYPRP	-0.451
RRIRYRPPRLPRPRPRPWLTPRP	-0.558
RRIRWRPPRLPRPRPRPFTLPRP	3.06
RRIRYRPPRLPRPRPRPVKTPRP	-0.0365
RRIRHRPPRLPRPRPRPQMTPRP	-0.104
RRIRWRPPRLPRPRPRPEDGPRP	0.173
RRIRYRPPRLPRPRPRPLFQPRP	-0.76
RRIRKRPPRLPRPRPRPTTAPRP	0.271
RRIRSRPPRLPRPRPRPASEPRP	-0.00793
RRIRDRPPRLPRPRPRPLYRPRP	-0.163
RRIRTRPPRLPRPRPRPWDAPRP	0.125
RRIRIRPPRLPRPRPRPELPPRP	0.0135
RRIRQRPPRLPRPRPRPGSPPRP	-0.232
RRIRDRPPRLPRPRPRPCAKPRP	0.244
RRIRKRPPRLPRPRPRPLQCPRP	0.101
RRIRPRPPRLPRPRPRPRSQPRP	0.263

Sequence	shrunken log2 fold change
RRIRPRPPRLPRPRPRPHPKPRP	0.347
RRIRMRPPRLPRPRPRPTEMPRP	0.14
RRIRDRPPRLPRPRPRPQSMPRP	0.0598
RRIRHRPPRLPRPRPRPNFYPRP	-0.515
RRIRCRPPRLPRPRPRPQPRPRP	0.745
RRIRYRPPRLPRPRPRPCCTPRP	-0.418
RRIRERPPRLPRPRPRPKFQPRP	-0.268
RRIRLRPPRLPRPRPRPNMHPRP	-0.565
RRIRERPPRLPRPRPRPFLNPRP	-0.0647
RRIRMRPPRLPRPRPRPVLPPRP	-0.0643
RRIRERPPRLPRPRPRPENKPRP	-0.697
RRIRPRPPRLPRPRPRPNCRPRP	-0.000174
RRIRVRPPRLPRPRPRPRNGPRP	0.0197
RRIRHRPPRLPRPRPRPIHYPRP	-0.0138
RRIRQRPPRLPRPRPRPLMWPRP	0.0648
RRIRTRPPRLPRPRPRPMRCPRP	-0.117
RRIRNRPPRLPRPRPRPWHRPRP	0.049
RRIRVRPPRLPRPRPRPWEAPRP	0.268
RRIRERPPRLPRPRPRPMMRPRP	0.169
RRIRDRPPRLPRPRPRPFPCPRP	0.0367
RRIRPRPPRLPRPRPRPLMRPRP	0.761
RRIRCRPPRLPRPRPRPAPLPRP	0.645
RRIRDRPPRLPRPRPRPDINPRP	0.47
RRIRIRPPRLPRPRPRPGGCPRP	0.0544
RRIRCRPPRLPRPRPRPQEVPRP	0.144

Source: the supplement of paper PMC9112550, “Optimization of the antimicrobial peptide Bac7 by deep mutational scanning” (BMC Biology, 2022)
